Data as given in US11110171B2, “PD-1 related cancer therapy” (New York University, priority 2017, dated 2021).

Molecular target: T1, SHP2PTP (the catalytic domain of SHP2) (Homo sapiens, UniProt Q06124)
T1 construct: purchased Abcam 42578 (SHP2 catalytic domain); 101112 (SAP)
T1 sequence (Q06124 247-517 limits assumed): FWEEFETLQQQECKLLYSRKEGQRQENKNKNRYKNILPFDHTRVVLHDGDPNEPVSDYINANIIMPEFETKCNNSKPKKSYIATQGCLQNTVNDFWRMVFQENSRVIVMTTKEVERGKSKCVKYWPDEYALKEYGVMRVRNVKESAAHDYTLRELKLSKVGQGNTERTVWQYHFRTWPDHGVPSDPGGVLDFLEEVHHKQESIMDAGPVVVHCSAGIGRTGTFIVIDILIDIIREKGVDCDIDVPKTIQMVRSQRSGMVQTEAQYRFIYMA
Assay: Co-affinity enrichment of His-tagged SAP and GST-tagged SHP2PTP
Type: binding
Conditions: recombinant proteins in the absence of T cell lysate
Procedure: FIG. 3. SAP is indirectly associated with PD-1. (ai) Pervanadate treated Jurkat T cells were transiently transfected with GFP-tagged PD-1 or GFP alone; Whole cell lysates (WCL) were immunoprecipitated with an anti-GFP antibody (IP: GFP), and samples were analyzed by immunoblotting. (aii) Densitometry values of data shown in ai. (b) Jurkat T cells were transfected with plasmids directing expression of the indicated fluorescent proteins and after 24 hours cells were stimulated with anti-CD3 antibodies and recombinant PDL2, followed by live-imaging. Bar, 10 μm. […] (di) Jurkat T cells were transfected with different versions of GFP-tagged PD-1, as indicated, followed by treatment with pervanadate; Whole-cell lysates (Input) were immunoprecipitated with an anti-GFP antibody (IP: GFP), and samples were analyzed by immunoblotting. […] (ei) 293T cells were transfected with plasmid directing expression of GFP-SAP or a control GFP plasmid, followed by treatment with pervanadate; Lysates were pulled-down with the GST-tagged PD-1 and samples were analyzed by immunoblotting. […] (gi) SHP2 KD and scrambled control Jurkat T cells were transfected with GFP-tagged PD-1, followed by treatment with pervanadate; Lysates were immunoprecipitated with an anti-GFP antibody (IP: GFP), and samples were analyzed by immunoblotting. […] Samples were analyzed by immunoblot. […]

B1: SAP: Recombinant human SAP (His tagged), signaling lymphocytic activation molecule-associated protein, purchased from Abcam (protein, UniProt O60880 1-128, looked up)
SH2 domain-containing protein …: MDAVAVYHGKISRETGEKLLLATGLDGSYLLRDSESVPGVYCLCVLYHGYIYTYRVSQTETGSWSAETAPGVHKRYFRKIKNLISAFQKPDQGIVIPLQYPVEKKSSARSTQGTTGIREDPDVCLKAP
modifications: His tag
direct interaction of SAP with SHP2 catalytic domain: lack of direct interaction
